Biological target: soluble monomeric 1059 gp120 (HIV-1 clone 1059_09.A4.1460 (clade B …, strain))
Assay: ELISA

- binding result: binds
B1: N6 (CD4-binding site broadly neutralizing antibody) (antibody, V domains shown)
VH: RAHLVQSGTAMKKPGASVRVSCQTSGYTFTAHILFWFRQAPGRGLEWVGWIKPQYGAVNFGGGFRDRVTLTRDVYREIAYMDIRGLKPDDTAVYYCARDRSYGDSSWALDAWGQGTTVVVSA
VL: YIHVTQSPSSLSVSIGDRVTINCQTSQGVGSDLHWYQHKPGRAPKLLIHHTSSVEDGVPSRFSGSGFHTSFNLTISDLQADDIATYYCQVLQFFGRGSRLHIK

From publication PMC10515946 (bioRxiv, 2023)
